Several values for one entry are separate records, joined by “and”; a condition that tells them apart may be missing. Equal entries are not always repeated.
B1: FC5: sdAb from the literature binding BBB receptors; positive control for BBB transmigration, SEQ ID NO: 112 (protein, listed as Lama glama)
VHH: ASEVQLQASGGGLVQAGGSLRLSCAASGFKITHYTMGWFRQAPGKEREFVSRITWGGDNTFYSNSVKGRFTISRDNAKNTVYLQMNSLKPEDTADYYCAAGSTSTATPLRVDYWGKGTQVTVSSLE
modifications: /note=“#FC5”

Key:
[1] = Features of peptides: isoelectric point, charge; type: physicochemical; details: original peptide
From the text: Table 7 lists each peptide's name, isoelectric point (PI), charge (number of positive residues), calculated mass (in Da), and ion found; as well as the name, calculated mass, and found ion for the corresponding conjugate; and also retention times in HPLC and the partition coefficient (log Po/w). These values allowed the determination of the hydrophilic nature of peptides, where pepH1 and pepH4 were identified as the most hydrophilic peptides.

[2] = system: in vitro model of the BBB (bEnd3 cells); assay: Transmigration of radiolabelled peptides across in vitro BBB model; type: in vitro ADME; details: for overpass in the control (no cells): 5 h
Method: Using the same in vitro model of the BBB described above, peptides labelled with technetium and gallium were tested for the ability to cross endothelial barrier. For each peptide, bEnd3 cells cultured on “tissue culture inserts” were incubated with 5 ρCimL^−1-labelled peptide for different incubation times: 15 min, 5 h and 24 h. As a control, the model without cells was used (Control no cells) or (Filters) and compared to models with cells (BBB) or (Cells).
FIGS. 21A-21F show the percent activity of the radioisotope technetium-labelled peptides at the apex and base after 5 hours of incubation with the in vitro model described above, using the BBB-model or no cells (as a control); and values were obtained from two independent assays. […] Moreover, the results indicated promising candidates. Specifically, for each of pepH1 and pepH3, there was an overpass of 50% in the control, compared with only 20% in the presence of a cell barrier. The translocation of pepH2 was not observed in either the control nor in the BBB model.
Results for the incubations of 15 minutes, 5 hours, and 24 hours are shown together in FIGS. 22A-22F. That is, FIGS. 22A-22F show the percent activity of the radioisotope technetium-labelled peptides at the apex and base after 15 minutes, 5 hours, and 24 hours of incubation with the in vitro model described above, using the BBB-model or no cells (as a control); and values were obtained from two independent assays. Differences again were observed, confirming the integrity of the barrier, as well as identifying peptides that crossed the barrier. […] PepR′ thus was excluded from further tests.
(§1) Table 9 summarizes results regarding uptake (internalization) and cellular interaction, as well as transmigration across an in vitro model for BBB, for peptides labelled with technetium and gallium, after 15 minutes, 5 hours, and 24-hours of incubation, based on percent recovery of radiopeptide. The Table lists the peptides, providing each peptide's name, % BBB transmigration, % cellular interaction, and % internalized, each after […], 5 hours, and 24 hours of incubation.

bEnd3 cells = assay: Uptake test: cellular interaction (acid wash) and internalization (lysate); type: cell-based
Method: In addition to testing models of BBB, an uptake test was performed to determine the internalizing ability of the candidate peptides. BEnd3 cells were cultured in 24 well plates. At each time point, the medium containing the peptide, which had not interacted with the cells, was collected. In the next step, the cells were washed with an acidic buffer that releases peptides more strongly bound to the cell membrane (sample acid wash). Finally, the cells were lysed to release internalized peptides and to quantify the activity inside the cells. Results are showing in FIGS. 23A-23E.
FIGS. 23A-23E show percent activity of the radioisotope technetium-labelled peptides in the media, wash buffer (acid wash) and lysate, after 15 minutes, 5 hours, and 24 hours of incubation with bEnd3 cells; and values were obtained from two independent assays. […] PepM′, as well as showing high transmigration (about 50%), also appeared to become internalized and accumulated within the cells (about 13% of radioactivity in the lysate).
as §1

[3] = Biodistribution of technetium-labelled peptides; type: in vivo, CD1 mice; details: for excreted: after 60 min; for brain uptake: after 2 min; for brain washout: mouse, in vivo
Method: To evaluate the capacity to cross the BBB in vivo, the selected peptides, pepH1 and pepH3, were analyzed for biodistribution in CD1 mice. The peptides were labelled with technetium at a final concentration of 8.5×10^−5 M and diluted in PBS. CD1 mice were injected (iv injection, tail vein). The mice were sacrificed by cervical dislocation after 5 and 60 minutes of incubation. The tissues of interest were dissected and washed to remove excess blood, weighed, and measured for radioactivity. Technetium radioactivity of the different peptides was measured for different organs.
Initial results are presented in Table 11, where “% I.A. refers to the “% injected activity”, that is, the amount of radioactivity measured in a given organ compared to the total originally injected.
The biodistribution studies were repeated, using higher doses of each peptide, specifically, a one hundred fold increase, as well as using PepH2 as a negative control, and allowing incubation for 2 minutes and 60 minutes. Tissue biodistribution profile in percentage of injected radiopeptide activity per gram of tissue/organ was measured and results are presented in Table 12.

[4] = Stability in blood and urine after injection, HPLC; type: in vivo, mice; details: 5 and 60 minutes following injection
Method: Finally, stability of the peptides was determined. Urine and blood were taken from the animals after death, filtered, and analyzed by RT-HPLC. HPLC analysis was conducted to assess the stability of pepH1 and pepH3 peptides in blood and urine, 5 and 60 minutes post-administration, compared to the respective original preparations.
FIGS. 28A-28D show the profile of pepH1 and pepH3 each in its original preparation, prior to injection into the animals, and then after 5 and 60 minutes following injection in the blood and urine.

[5] = Partition coefficient Kp by intrinsic trp fluorescence; type: physicochemical
Method: For the pepH3, the “partition coefficient” or “affinity constant” also was determined, since this peptide intrinsically presents a tryptophan and, thus, successful administrations of the lipid compositions allowed determination of pepH3's affinity constant.
PepH2 and pepH3 are the most hydrophobic peptides (Po/w). In addition, pepH2 interacts with various lipid compositions of membrane models, while pepH3 only interacts with membranes rich in PS (a negatively charged phospholipid).

BAP42 = biological target: T1, BAP42 (Homo sapiens, UniProt P05067); assay: Thioflavin T assay of BAP42 aggregation inhibition; type: biochemical; details: proportions 1:5 and 1:20 sdAb:BAP42
T1 construct: “beta-amyloid peptide 42”, or “beta-amyloid peptide 1-42”
Method: Once purified and verified in recognizing BAP42 oligomers, anti-oligomer antibodies were purified were tested for their ability to inhibit aggregation of the peptide to fibrillar forms. This assay was performed using the thioflavin T (ThT), which, as discussed above, is a probe that recognizes rich “beta-sheet” secondary structures, the structure indeed characteristic of fibrillar BAP42. Accordingly, the greater aggregation inhibition by a candidate anti-oligomer sdAb, the less fibrils formed, and thus the smaller the signal emitted by ThT during the assay. Other selected anti-oligomer sdAbs show similar aggregation inhibition.
Anti-oligomers also were tested for their ability to inhibit aggregation of BAP42. This assay was performed using Thioflavin T (ThT), which, as described above, recognizes beta-sheet rich structures, characteristic of fibrillar form of BAP42, so that the ability of sdAbs to inhibit aggregation can be assessed. Specifically, the more aggregation is inhibited, the smaller the signal emitted by ThT. Two proportions were tested, namely, 1:5 (one molecule for sdAb for every 5 BAP42 molecules) and 1:20 (one molecule for sdAb for every 20 BAP42 molecules).

[6] = 140 μg (pepH1, pepH3) or 80 μg (pepH2)

T1 sequence (P05067 672-713 limits assumed): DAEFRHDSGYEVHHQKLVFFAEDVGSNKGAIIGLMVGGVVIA

Row | Molecule | Charge (number of positive residues) [1] | PI (isoelectric point) [1] | BBB transmigration ([2]; 99mTc, 0.25 hours) | overpass in the control (no cells) ([2]; 99mTc) | BBB transmigration ([2]; 99mTc, 5 hours) | BBB transmigration ([2]; 99mTc, 24 hours) | BBB transmigration ([2]; GaCl3, 0.25 hours) | BBB transmigration ([2]; GaCl3, 5 hours) | BBB transmigration ([2]; GaCl3, 24 hours) | where the radiopeptide is found in the uptake test (media, acid wash, lysate) (bEnd3 cells; 99mTc) | Cellular interaction (bEnd3 cells; 99mTc, 0.25 hours) | Internalization (bEnd3 cells; 99mTc, 0.25 hours) | Cellular interaction (bEnd3 cells; 99mTc, 5 hours) | Internalization (bEnd3 cells; 99mTc, 5 hours) | Cellular interaction (bEnd3 cells; 99mTc, 24 hours) | Internalization (bEnd3 cells; 99mTc, 24 hours) | Cellular interaction (bEnd3 cells; GaCl3, 0.25 hours) | Internalization (bEnd3 cells; GaCl3, 0.25 hours) | Cellular interaction (bEnd3 cells; GaCl3, 5 hours) | Internalization (bEnd3 cells; GaCl3, 5 hours) | also measured
1 | VQQLTKRFSL (Dengue virus 2; /note=“#PepH1”) | 2 | 11 | 3.75 ± 0.5% | 50% | 24.3 ± 0.4% | 73.83 ± 9.4% | 1.13 ± 0.2% | 21.56 ± 0.4% | 71.47 ± 3.7% | mainly remained in the incubation medium | 0.63 ± 0.1% | 0.16 ± 0.0% | 0.30 ± 0.0% | 0.10 ± 0.0% | 0.38 ± 0.1% | 0.12 ± 0.0% | 0.25 ± 0.0% | 0.00 ± 0.0% | 0.80 ± 0.3% | 0.10 ± 0.0% | BBB transmigration ([2]; 99mTc, 5 hours, listed as pepH1): 20%; BBB transmigration ([2]; 99mTc, 24 hours, listed as pepH1): about 70%; BBB transmigration / translocation (summary of Table 9) ([2]; 24 h, both types of markings): about 70%; Cellular interaction (bEnd3 cells; GaCl3, 24 hours): 0.62 ± 0.0%; Internalization (bEnd3 cells; GaCl3, 24 hours): 0.16 ± 0.0%; excreted [3, 6]: 32.7%; brain uptake [3]: rapid brain uptake; brain washout [3]: rapid brain washout; stability in blood and urine [4]: stable in the blood and urine
2 | AGILKRW (Dengue virus 2; /note=“#PepH3 (PEP+)”) | 2 | 11 | 2.70 ± 0.0% | 50% | 9.16 ± 6.5% | 67.23 ± 1.2% | 1.87 ± 0.3% | 26.47 ± 0.4% | 72.63 ± 0.7% | mainly remained in the incubation medium | 1.50 ± 0.1% | 0.15 ± 0.1% | 1.15 ± 0.1% | 0.15 ± 0.1% | 0.60 ± 0.1% | 0.35 ± 0.2% | 0.26 ± 0.0% | 0.03 ± 0.0% | 0.73 ± 0.0% | 0.12 ± 0.0% | BBB transmigration ([2]; 99mTc, 5 hours, listed as pepH3): 20%; BBB transmigration ([2]; 99mTc, 24 hours, listed as pepH3): about 70%; Cellular interaction (bEnd3 cells; GaCl3, 24 hours): 0.60 ± 0.1%; Internalization (bEnd3 cells; GaCl3, 24 hours): 0.30 ± 0.1%; affinity constant for POPC:POPS (1:4) relative to other lipid compositions [5]: 5 times; Kp ± SD ([5]; Lipidic membrane POPC:POPS (1:4)): 1,558 and 1,558 ± 216; Kp ± SD ([5]; Lipidic membrane POPC:POPS (3:2)): 455 ± 46; Kp ± SD ([5]; Lipidic membrane POPC:POPS (4:1)): 324 and 342 ± 102; radioactivity in the brain ([3]; 140 μg (pepH1, pepH3) or 80 μg (pepH2), 2 min): 0.31% and 0.37%; excreted [3, 6]: 36%; brain uptake [3]: rapid brain uptake; brain washout [3]: rapid brain washout; stability in blood and urine [4]: stable in the blood and urine
3 | B1 |  |  |  |  |  |  |  |  |  |  |  |  |  |  |  |  |  |  |  |  | inhibition of BAP42 fibrillization (ThT signal) (BAP42): do not inhibit fibrillization

Source: patent publication US10654917B2, “Antibody molecules and peptide delivery systems for use in alzheimer's disease and related disorders” (TECHNOPHAGE, INVESTIGAÇĀO E DESENVOLVIMENTO EM …, priority 2015, dated 2020)
